Assay results taken from patent publication US20080287363A1.

Legend:
CCL5/RANTES [1] = biological target: CCL5/RANTES (UniProt P13501); test: equilibrium competition receptor binding assay (SPA): inhibition of 0.1 nM 125I-RANTES binding to CHO/CCR1 membranes
CCL5/RANTES [2] = biological target: CCL5/RANTES (UniProt P13501); test: equilibrium competition receptor binding assay (SPA): inhibition of 0.1 nM 125I-RANTES binding to CHO/CCR5 membranes

Chain of CCL5/RANTES (P13501 24-91 limits assumed): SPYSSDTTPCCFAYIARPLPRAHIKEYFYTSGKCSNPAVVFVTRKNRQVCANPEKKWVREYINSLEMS

Q: Which IC50 (CCL5/RANTES [1]) does the source give for “recombinant Δ6 evasin-4 (truncated, N-terminally 6His tagged evasin-4, amino acids 24-127), purified” here?
A: The IC50 was 7 nM.

Q: And the IC50 (CCL5/RANTES [2])?
A: The IC50 was 3 nM.
